A short description of the data set: soluble fraction after stress (log2 fold change); higher = more stays soluble; pooled small domains, quantitative proteomics. Particulars: stress: 50 degC. In short, it runs like this:
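Quantitative proteomics served as the high-throughput read-out for pooled custom libraries of small protein domains. Each was stressed at 50°C. Aggregation propensity is expressed as the base-two log fold change in soluble protein after stress. A higher value means a larger share of the protein remains in solution.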

For “HMIEYYDDEELDVFKGRQSDNYTNKEIEQFAEVLHTMRQDEVKGWNRSLILRSINLPDSLKDEVIMLI”, the “soluble fraction (log2)” value was -0.672.

Regarding “HMKARLRRVFQIYYGDAYSIMKALKETFPLQTIVHEPRTNSIVVDTPDEETATKIGDVVSAL”, the “soluble fraction (log2)” value was -0.392.

With “HMGTVFTDIMTDIASGKFPNVFPDSLEAQIQKNVTMAPDKLSATLQYGDKSVILPTTKGKEAAEAAVKAA”, the “soluble fraction (log2)” value is -0.0555.

Regarding “HMQTFNADDIEPIIKEILQENPKAISDFLTGNENVVKFLLGQVMKNTKGKANPKVIEELLINQLRELNN”, the “soluble fraction (log2)” value came to 0.00183.

For the sequence “HMELPADLATVLSVDDIRAIALAEVPGSTITGVELEREEGVLVYKVKFNDGSYKLYDANTGELV”, the “soluble fraction (log2)” value worked out at 0.174.

Regarding “HMEAEVIKTASDMADRNGLHNVSLKAIAENLGIRTPSLYNHIGSLDELLREIAHSGMRTMNE”, the “soluble fraction (log2)” value worked out at 0.02.

For the sequence “HMENLSFNINSEEEGQRIDKYLSVMIEGKSRSFVQGLIEEKKVKANSKVIKSNYKLKKGDFIEVEVPEPV”, the “soluble fraction (log2)” value is 0.27.

As to “HMRGADNAASILKEVGPHPEDGKPITVRSGRYGPYVKHGTTNATLPKDIKPEEITLDEAIALINERVAKG”, the “soluble fraction (log2)” value was -0.243.

For the sequence “HMSREEFLTELRKALQGRVSQQTVNDNLRYYEEYILTESHKGKTEAEVIAELGNPRLLAKSIIDAENAT”, the “soluble fraction (log2)” value turned out to be 0.107.

On to “HMAEAIVMSTAAPVKSSPDPQSKDIFVLHEGTKVAVGDSLGDWREIRIADGNKGWVLVSAIEMI”, for which the “soluble fraction (log2)” value came out at 0.0979.

For “HMSRESNISTGRQLLEAQLPTWGYKKVEDIPSKQMKTALDAFNYKDVESLLQGLGEGSVALTTALRRLMP”, the “soluble fraction (log2)” value was determined as 0.313.

Take “HMDALKAVYQWVTRTMMKNQTGVMQTLPNRDLIELNTQITAQRLMQAGVDPTTLKNANQVENAVNIIESR”: the “soluble fraction (log2)” value is -0.473.

In the case of “HMNMMESNLFAVYDNDDIVKTLRQGAMEIDSLIRLMGKSSAEVLEKLTTMELQGIITRSGNIIALNN”, the “soluble fraction (log2)” value is -0.064.

Consider “HMFHDPTMEETLINLKGITNEVLSLLSSSKIKKLEDLAEMSVPELRDIVENISDEEASALIMEARKPWF”, for which the “soluble fraction (log2)” value was -0.446.

“HMPQLEDLEPLDSSGMVRRDGPHLVLAVGRHRGRHLEEVRDSDPSYLHWLLSPKGIEDIQAKEDIKTYLNL”: the “soluble fraction (log2)” value is 0.0519.

Turning to “HMIALKNLREEKRMTQAELSKDLEISPSAIGMYEQGRRVPDVSTLKKISAYFNVSIDYLLGNSTSKDI”, the “soluble fraction (log2)” value was -0.018.

Turning to “HMQDRDKNVPAGKELLDNEIARLNMSLKQVEQFALPRYNLKTLEDLYSGIGSGDIRLNHLINFLQSKLI”, the “soluble fraction (log2)” value was -0.135.

In the case of “HMLAVEKIEFVGNERIAAADLESALSALYDRPMTTISDDEIAKLLSGFSLIETFTSQAEPPHTLRVNIRE”, the “soluble fraction (log2)” value was -0.141.

On to “HMSMSVLFSELDQKDAGVIVEKLKERKIPYELQSGGSAIMVPANVLHETRLQLAAEGLPQSS”, for which the “soluble fraction (log2)” value was found to be 0.0439.

In the case of “HMGIEIKLLMSFMTDSGRKVSLFVTDPREDVTETEIKQVMDLIIEKNIFAPNGEDIVSAKEAKIVQT”, the “soluble fraction (log2)” value is -1.25.

As to “HMTQEAMRSLRKSLQNLSSRQQVIFMLRHYEGLALKEIAEHLGLETGTVKAHLHRAVTQLRKDLVE”, the “soluble fraction (log2)” value is -1.68.

Turning to “HMTPDVAEFRERLRQILPGEQIEVRTANDGIVLSGTVSSIARLDAALQLAERYAPSRVSNLMSVG”, the “soluble fraction (log2)” value turned out to be 0.19.

In the case of “HMDSYSILGIEKESSMEDIEKAYIDKISKIKKEVKNEKNAAAFEAVLTKAYNDILSQKENISEEQELAE”, the “soluble fraction (log2)” value stood at 0.011.

For the sequence “HMFSDDEINRLKARDSILVNLRDSEKQVWELYTDGKTVQNIANQLNKHKQSISATIINIKNKISRKQNMLK”, the “soluble fraction (log2)” value was -0.534.

As for “HMSSEQRSVLFPNLAETDKVAVIEALMAAGVNARVDSASGRVTVPSGDYYNSRAILAAQGLPTS”, the “soluble fraction (log2)” value was 0.0696.

As to “HMTDDFAGRFNELLIHNQETAVTAATRLEVSPAVITKWRQGKSIPSGEYIKRIVETYHVSADYLLGVIDTP”, the “soluble fraction (log2)” value is -0.445.

Take “HMEKELVSDFASRISTARSSKGWNHAELGKRMAETVNVIKSAESGKPPTDSVVKKLERVLGITLMEV”: the “soluble fraction (log2)” value was -0.17.

Consider “HMDNPLSQQEKRILQLISLGKTNQEIADILYLSNGTVRNYISSILNKLSANNRVEAARIAEEHGW”, for which the “soluble fraction (log2)” value is -0.73.
